Test results reported in patent US20230257470A1 (published 2023).

T1: human FcγRIIb (human, UniProt P31994 43-217, limits assumed)
T1 construct: also called FcyRIfb; FcγIIB
T1 sequence: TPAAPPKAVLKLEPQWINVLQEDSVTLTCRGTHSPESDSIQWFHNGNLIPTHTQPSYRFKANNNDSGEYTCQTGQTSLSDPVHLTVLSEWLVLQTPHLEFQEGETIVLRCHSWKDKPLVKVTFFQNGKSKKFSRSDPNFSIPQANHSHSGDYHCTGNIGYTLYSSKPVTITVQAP

T2: human FcγRIIa type H (human, UniProt P12318 36-217)
T2 construct: also called FcyRIIaH; FcγRIIa(H)
T2 sequence: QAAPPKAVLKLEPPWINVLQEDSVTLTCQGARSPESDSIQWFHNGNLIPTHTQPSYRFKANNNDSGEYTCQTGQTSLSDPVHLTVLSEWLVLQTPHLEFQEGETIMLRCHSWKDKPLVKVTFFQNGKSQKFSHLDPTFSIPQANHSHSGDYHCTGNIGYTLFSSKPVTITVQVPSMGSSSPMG

T3: human FcγRIIa type R (human, UniProt P12318 36-217)
T3 construct: also called FcgRIIaR; FcγRIIa(R)
T3 chain: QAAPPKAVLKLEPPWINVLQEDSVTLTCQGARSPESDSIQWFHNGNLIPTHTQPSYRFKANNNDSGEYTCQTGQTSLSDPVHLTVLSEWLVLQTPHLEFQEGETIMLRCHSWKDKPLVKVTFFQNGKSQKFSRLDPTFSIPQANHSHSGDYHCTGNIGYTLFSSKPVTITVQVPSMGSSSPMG

T4: human FcγRIIa type H (human, UniProt P12318 36-217)
T4 construct: also called FcgRIIaH; FcγRIIa(H)
T4 sequence: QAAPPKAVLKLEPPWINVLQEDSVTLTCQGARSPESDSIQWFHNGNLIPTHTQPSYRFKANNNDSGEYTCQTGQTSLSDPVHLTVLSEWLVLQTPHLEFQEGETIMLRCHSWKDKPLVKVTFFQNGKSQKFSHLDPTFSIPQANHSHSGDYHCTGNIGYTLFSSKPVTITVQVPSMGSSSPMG

T5: human FcγRIIb (human, UniProt P31994 43-217, limits assumed)
T5 construct: also called FcgRIIb; FcγIIB
T5 sequence: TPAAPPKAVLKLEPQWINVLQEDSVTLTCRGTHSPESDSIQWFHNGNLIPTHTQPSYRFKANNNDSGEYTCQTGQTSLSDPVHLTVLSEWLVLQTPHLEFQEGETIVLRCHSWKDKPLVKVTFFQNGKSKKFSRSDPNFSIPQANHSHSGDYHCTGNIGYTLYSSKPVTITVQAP


Legend:
human FcγRIa [1] = biological target: T6, human FcγRIa (human, UniProt P12314 16-292, limits assumed); assay: SPR (Biacore), FcγR over captured antibody; binding amount relative to IL6R-BF648/IL6R-L x100
T6 construct: also called FcyRIa; CD64
T6 sequence (P12314 16-292 limits assumed): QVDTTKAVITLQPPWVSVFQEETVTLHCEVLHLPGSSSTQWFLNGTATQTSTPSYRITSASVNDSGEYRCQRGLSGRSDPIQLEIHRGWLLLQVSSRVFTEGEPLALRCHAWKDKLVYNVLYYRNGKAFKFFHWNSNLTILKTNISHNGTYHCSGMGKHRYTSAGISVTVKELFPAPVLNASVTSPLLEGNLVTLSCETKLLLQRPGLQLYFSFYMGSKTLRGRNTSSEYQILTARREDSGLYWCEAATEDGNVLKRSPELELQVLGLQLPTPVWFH

human FcγRIIb [2] = biological target: T1, human FcγRIIb; assay: as above
human FcγRIIa type H [3] = biological target: T2, human FcγRIIa type H; assay: as above
human FcγRIa [4] = biological target: T7, human FcγRIa (human, UniProt P12314 16-292, limits assumed); assay: SPR (Biacore), FcγR over captured antibody; binding amount divided by that of IL6R-BF648/IL6R-L x 100
T7 construct: also called FcgRIa; FcγRI (CD64)
T7 sequence (P12314 16-292 limits assumed): as above
Protocol: (§1) According to the following method, relative binding activities were calculated for the results of analyzing interactions with the respective FcγRs.

human FcγRIIa type R = biological target: T3, human FcγRIIa type R; assay: as above
Protocol: as §1

human FcγRIIa type H [5] = biological target: T4, human FcγRIIa type H; assay: as above
Protocol: as §1

human FcγRIIb [6] = biological target: T5, human FcγRIIb; assay: as above
Protocol: as §1

human FcγRIIIa type V = biological target: T8, human FcγRIIIa type V (human, UniProt P08637 17-208, limits assumed); assay: as above
T8 construct: also called FcgRIIIaV; FcγRIIIa(V)
T8 sequence (P08637 other isoform, or with tags, fused parts or gaps limits assumed): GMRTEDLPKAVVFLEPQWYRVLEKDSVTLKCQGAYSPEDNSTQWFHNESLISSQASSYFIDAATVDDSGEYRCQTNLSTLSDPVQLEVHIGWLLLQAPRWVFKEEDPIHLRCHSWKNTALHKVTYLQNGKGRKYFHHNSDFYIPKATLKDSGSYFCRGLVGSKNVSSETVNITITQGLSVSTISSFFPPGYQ
Protocol: as §1

Binder	relative binding (human FcγRIa [1])	relative binding (human FcγRIIb [2])	relative binding (human FcγRIIa type H [3])	relative binding activity (human FcγRIa [4])	relative binding activity (human FcγRIIa type R)	relative binding activity (human FcγRIIa type H [5])	relative binding activity (human FcγRIIb [6])	relative binding activity (human FcγRIIIa type V)
IL6R-BP120/IL6R-L (antibody, human IgG1, name in EU numbering) heavy: QVQLQESGPGLVKPSETLSLTCAVSGHSISHDHAWSWVRQPPGEGLEWIGFISYSGITNYNPSLQGRVTISRDNSKNTLYLQMNSLRAEDTAVYYCARSLARTTAMDYWGEGTLVTVSSASTKGPSVFPLAPSSKSTSGGTAALGCLVKDYFPEPVTVSWNSGALTSGVHTFPAVLQSSGLYSLSSVVTVPSSSLGTQTYICNVNHKPSNTKVDKKVEPKSCDKTHTCPPCPAPELLGGDSVFLFPPKPKDTLMISRTPEVTCVVVDVSHEDPEVKFNWYVDGVEVHNAKTKPREEQYNSTYRVVSVLTVLHQDWLNGKEYKCKVSNEALPAPIEKTISKAKGQPREPQVYTLPPSRDELTKNQVSLTCLVKGFYPSDIAVEWESNGQPENNYKTTPPVLDSDGSFFLYSKLTVDKSRWQQGNVFSCSVMHEALHNHYTQESLSLSP light: DIQMTQSPSSLSASVGDRVTITCRASQDISSYLNWYQQKPGKAPKLLIYYTSRLHSGVPSRFSGSGSGTDFTFTISSLQPEDIATYYCQQGNTLPYTFGQGTKVEIK	125 % of IL6R-BF648/IL6R-L	114 % of IL6R-BF648/IL6R-L						
IL6R-BP126/IL6R-L (antibody, human IgG1, name in EU numbering) heavy: QVQLQESGPGLVKPSETLSLTCAVSGHSISHDHAWSWVRQPPGEGLEWIGFISYSGITNYNPSLQGRVTISRDNSKNTLYLQMNSLRAEDTAVYYCARSLARTTAMDYWGEGTLVTVSSASTKGPSVFPLAPSSKSTSGGTAALGCLVKDYFPEPVTVSWNSGALTSGVHTFPAVLQSSGLYSLSSVVTVPSSSLGTQTYICNVNHKPSNTKVDKKVEPKSCDKTHTCPPCPAPELLGGDSVFLFPPKPKDTLMISRTPEVTCVVVDVSHEDPEVKFNWYVDGVEVHNAKTKPREEQYNSTYRVVSVLTVLHQDWLNGKEYKCKVSNLALPAPIEKTISKAKGQPREPQVYTLPPSRDELTKNQVSLTCLVKGFYPSDIAVEWESNGQPENNYKTTPPVLDSDGSFFLYSKLTVDKSRWQQGNVFSCSVMHEALHNHYTQESLSLSP light: DIQMTQSPSSLSASVGDRVTITCRASQDISSYLNWYQQKPGKAPKLLIYYTSRLHSGVPSRFSGSGSGTDFTFTISSLQPEDIATYYCQQGNTLPYTFGQGTKVEIK	113 % of IL6R-BF648/IL6R-L		132 % of IL6R-BF648/IL6R-L					
IL6R-BP150/IL6R-L (antibody, human IgG1, name in EU numbering, the list runs over r34 and r35; copies: 2 + 2) heavy: QVQLQESGPGLVKPSETLSLTCAVSGHSISHDHAWSWVRQPPGEGLEWIGFISYSGITNYNPSLQGRVTISRDNSKNTLYLQMNSLRAEDTAVYYCARSLARTTAMDYWGEGTLVTVSSASTKGPSVFPLAPSSKSTSGGTAALGCLVKDYFPEPVTVSWNSGALTSGVHTFPAVLQSSGLYSLSSVVTVPSSSLGTQTYICNVNHKPSNTKVDKKVEPKSCDKTHTCPPCPAPEYLGDDSVFLFPPKPKDTLMISRTPEVTCVVVDVSHEDPEVKFNWYVDGVEVHNAKTKPREEQYNSTYRVVSVLTVLHQDWLNGKEYKCKVSNAALPRPIEKTISKAKGQPREPQVYTLPPSRDELTKNQVSLTCLVKGFYPSDIAVEWESNGQPENNYKTTPPVLDSDGSFFLYSKLTVDKSRWQQGNVFSCSVMHEALHNHYTQESLSLSP light: DIQMTQSPSSLSASVGDRVTITCRASQDISSYLNWYQQKPGKAPKLLIYYTSRLHSGVPSRFSGSGSGTDFTFTISSLQPEDIATYYCQQGNTLPYTFGQGTKVEIK				30 relative (IL6R-BF648/IL6R-L = 100)	757 relative (IL6R-BF648/IL6R-L = 100)	770 relative (IL6R-BF648/IL6R-L = 100)	183 relative (IL6R-BF648/IL6R-L = 100)	204 relative (IL6R-BF648/IL6R-L = 100)
IL6R-BP177/IL6R-L (antibody, human IgG1, name in EU numbering, the list runs over r41 and r42; copies: 2 + 2) heavy: QVQLQESGPGLVKPSETLSLTCAVSGHSISHDHAWSWVRQPPGEGLEWIGFISYSGITNYNPSLQGRVTISRDNSKNTLYLQMNSLRAEDTAVYYCARSLARTTAMDYWGEGTLVTVSSASTKGPSVFPLAPSSKSTSGGTAALGCLVKDYFPEPVTVSWNSGALTSGVHTFPAVLQSSGLYSLSSVVTVPSSSLGTQTYICNVNHKPSNTKVDKKVEPKSCDKTHTCPPCPAPDYLGDDSVFLFPPKPKDTLMISRTPEVTCVVVDVSHEDGEVKFNWYVDGVEVHNAKTKPREEQYNSTYRVVSVLTVLHQDWLNGKEYKCKVSNDALPKPIEKTISKAKGQPREPQVYTLPPSRDELTKNQVSLTCLVKGFYPSDIAVEWESNGQPENNYKTTPPVLDSDGSFFLYSKLTVDKSRWQQGNVFSCSVMHEALHNHYTQESLSLSP light: DIQMTQSPSSLSASVGDRVTITCRASQDISSYLNWYQQKPGKAPKLLIYYTSRLHSGVPSRFSGSGSGTDFTFTISSLQPEDIATYYCQQGNTLPYTFGQGTKVEIK				57 relative (IL6R-BF648/IL6R-L = 100)	691 relative (IL6R-BF648/IL6R-L = 100)	409 relative (IL6R-BF648/IL6R-L = 100)	177 relative (IL6R-BF648/IL6R-L = 100)	186 relative (IL6R-BF648/IL6R-L = 100)
